# According to paper PMC5063997, “Engineered Tissue Inhibitor of Metalloproteinases-3 Variants Resistant to Endocytosis Have Prolonged Chondroprotective Activity*” (The Journal of Biological Chemistry, 2016):
# Key:
# [1] = target: low density lipoprotein receptor-related protein 1 (LRP1), full-length (UniProt Q07954 20-4544); test: cell-based or functional assay
# [2] = target: T1, ADAM17 ectodomain (UniProt P78536 215-671); test: enzyme inhibition under equilibrium conditions (Ki(app), tight binding equation); apparent; ADAM17 preincubated with wild-type or mutant TIMP-3 (0.25-25 nM) 1 h at 37 °C, residual activity on a fluorescence-quenched substrate; 50 mM Tris-HCl pH 7.5, 25 mM NaCl, 10 mM CaCl2, 0.05% Brij 35, 0.02% NaN3; conditions: both partners purified
# T1 construct: ADAM17, ectodomain; source: gift from Professor Gillian Murphy (University of Cambridge)
# [3] = target: T2, ADAMTS-5 lacking the C-terminal thrombospondin domain (UniProt Q9UNA0 262-874); test: enzyme inhibition under equilibrium conditions (Ki(app), tight binding equation); apparent; metalloproteinase (0.5-1 nM) preincubated with wild-type or mutant TIMP-3 (0.25-25 nM) 1 h at 37 °C, residual activity on fluorescence-quenched substrates; 50 mM Tris-HCl pH 7.5, 150 mM NaCl, 10 mM CaCl2, 0.05% Brij 35, 0.02% NaN3; conditions: both partners purified
# T2 construct: ADAMTS-5 without its C-terminal thrombospondin domain
# T2 sequence (looked up): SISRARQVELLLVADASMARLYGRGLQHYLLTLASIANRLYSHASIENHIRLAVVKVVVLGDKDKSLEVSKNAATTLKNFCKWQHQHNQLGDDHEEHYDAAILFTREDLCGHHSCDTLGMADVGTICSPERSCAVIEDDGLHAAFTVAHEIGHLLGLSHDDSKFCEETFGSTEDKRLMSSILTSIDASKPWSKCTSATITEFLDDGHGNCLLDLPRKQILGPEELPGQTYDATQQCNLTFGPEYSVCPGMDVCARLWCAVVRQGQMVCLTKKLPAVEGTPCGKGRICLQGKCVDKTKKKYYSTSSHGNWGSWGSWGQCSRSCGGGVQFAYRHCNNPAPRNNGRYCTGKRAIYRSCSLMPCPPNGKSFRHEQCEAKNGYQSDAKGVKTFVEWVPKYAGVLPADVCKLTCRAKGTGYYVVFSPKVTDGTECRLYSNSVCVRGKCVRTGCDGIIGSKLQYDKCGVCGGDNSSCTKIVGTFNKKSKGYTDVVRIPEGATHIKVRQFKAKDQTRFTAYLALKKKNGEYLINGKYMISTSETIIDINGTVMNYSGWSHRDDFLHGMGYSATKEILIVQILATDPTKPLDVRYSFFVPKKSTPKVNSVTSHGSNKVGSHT
# [4] = target: T3, ADAMTS-4 lacking the C-terminal spacer domain (UniProt O75173 213-685); test: as above; conditions: both partners purified
# T3 construct: ADAMTS-4 without its C-terminal spacer domain
# T3 sequence (looked up): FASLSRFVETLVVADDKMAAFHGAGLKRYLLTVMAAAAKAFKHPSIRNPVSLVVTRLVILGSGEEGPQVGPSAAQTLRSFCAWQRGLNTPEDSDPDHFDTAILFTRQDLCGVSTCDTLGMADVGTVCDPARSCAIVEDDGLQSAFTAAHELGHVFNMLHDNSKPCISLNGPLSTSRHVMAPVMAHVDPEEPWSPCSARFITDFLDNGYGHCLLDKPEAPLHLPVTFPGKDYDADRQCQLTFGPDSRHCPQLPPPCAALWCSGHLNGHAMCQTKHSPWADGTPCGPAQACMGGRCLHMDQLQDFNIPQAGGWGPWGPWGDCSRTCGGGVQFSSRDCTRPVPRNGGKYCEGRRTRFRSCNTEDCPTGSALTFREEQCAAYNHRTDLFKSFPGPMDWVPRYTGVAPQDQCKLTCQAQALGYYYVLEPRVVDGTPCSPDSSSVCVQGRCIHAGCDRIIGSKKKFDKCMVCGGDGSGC
# [5] = target: T4, catalytic domain of MMP-3 (MMP-3ΔC) (UniProt P08254 100-272); test: as above; conditions: both partners purified
# T4 construct: MMP-3, catalytic domain
# [6] = target: T5, catalytic domain of MMP-2 (MMP-2ΔC) (UniProt P08253 110-444); test: as above; conditions: both partners purified
# T5 construct: MMP-2, catalytic domain
# [7] = target: T6, catalytic domain of MMP-1 (MMP-1ΔC) (UniProt P03956 100-269); test: as above; conditions: both partners purified
# T6 construct: MMP-1, catalytic domain
# T6 sequence (looked up): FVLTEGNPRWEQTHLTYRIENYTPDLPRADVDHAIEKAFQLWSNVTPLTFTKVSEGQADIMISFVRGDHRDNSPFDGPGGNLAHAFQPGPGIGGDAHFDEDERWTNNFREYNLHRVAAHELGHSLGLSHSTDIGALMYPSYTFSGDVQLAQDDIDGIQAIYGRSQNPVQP
# [8] = target: T2, ADAMTS-5 lacking the C-terminal …; test: enzyme inhibition under equilibrium conditions (Ki(app), tight binding equation); apparent; ADAMTS-5 (0.5 nM) preincubated with TIMP-3 (0.5-10 nM) with heparin (100 nM) 1 h at 37 °C, residual activity 18 h at 37 °C; 50 mM Tris-HCl pH 7.5, 150 mM NaCl, 10 mM CaCl2, 0.05% Brij 35, 0.02% NaN3; conditions: both partners purified
# T1 sequence (P78536 215-671): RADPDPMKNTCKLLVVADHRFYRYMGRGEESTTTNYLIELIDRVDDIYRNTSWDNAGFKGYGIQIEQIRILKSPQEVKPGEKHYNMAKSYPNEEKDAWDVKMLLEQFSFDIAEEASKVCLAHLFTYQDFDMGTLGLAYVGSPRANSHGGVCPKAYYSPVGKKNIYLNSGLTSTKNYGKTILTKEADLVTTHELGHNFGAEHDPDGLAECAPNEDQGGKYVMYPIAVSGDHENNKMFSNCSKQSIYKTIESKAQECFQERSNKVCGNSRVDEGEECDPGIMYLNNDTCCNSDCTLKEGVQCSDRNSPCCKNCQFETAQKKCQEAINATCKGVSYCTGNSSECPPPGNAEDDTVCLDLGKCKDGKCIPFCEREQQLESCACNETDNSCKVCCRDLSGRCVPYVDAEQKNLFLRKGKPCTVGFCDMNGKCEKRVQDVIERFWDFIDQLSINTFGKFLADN
# Chain of low density lipoprotein receptor-related protein 1 (LRP1), full-length (Q07954 20-4544): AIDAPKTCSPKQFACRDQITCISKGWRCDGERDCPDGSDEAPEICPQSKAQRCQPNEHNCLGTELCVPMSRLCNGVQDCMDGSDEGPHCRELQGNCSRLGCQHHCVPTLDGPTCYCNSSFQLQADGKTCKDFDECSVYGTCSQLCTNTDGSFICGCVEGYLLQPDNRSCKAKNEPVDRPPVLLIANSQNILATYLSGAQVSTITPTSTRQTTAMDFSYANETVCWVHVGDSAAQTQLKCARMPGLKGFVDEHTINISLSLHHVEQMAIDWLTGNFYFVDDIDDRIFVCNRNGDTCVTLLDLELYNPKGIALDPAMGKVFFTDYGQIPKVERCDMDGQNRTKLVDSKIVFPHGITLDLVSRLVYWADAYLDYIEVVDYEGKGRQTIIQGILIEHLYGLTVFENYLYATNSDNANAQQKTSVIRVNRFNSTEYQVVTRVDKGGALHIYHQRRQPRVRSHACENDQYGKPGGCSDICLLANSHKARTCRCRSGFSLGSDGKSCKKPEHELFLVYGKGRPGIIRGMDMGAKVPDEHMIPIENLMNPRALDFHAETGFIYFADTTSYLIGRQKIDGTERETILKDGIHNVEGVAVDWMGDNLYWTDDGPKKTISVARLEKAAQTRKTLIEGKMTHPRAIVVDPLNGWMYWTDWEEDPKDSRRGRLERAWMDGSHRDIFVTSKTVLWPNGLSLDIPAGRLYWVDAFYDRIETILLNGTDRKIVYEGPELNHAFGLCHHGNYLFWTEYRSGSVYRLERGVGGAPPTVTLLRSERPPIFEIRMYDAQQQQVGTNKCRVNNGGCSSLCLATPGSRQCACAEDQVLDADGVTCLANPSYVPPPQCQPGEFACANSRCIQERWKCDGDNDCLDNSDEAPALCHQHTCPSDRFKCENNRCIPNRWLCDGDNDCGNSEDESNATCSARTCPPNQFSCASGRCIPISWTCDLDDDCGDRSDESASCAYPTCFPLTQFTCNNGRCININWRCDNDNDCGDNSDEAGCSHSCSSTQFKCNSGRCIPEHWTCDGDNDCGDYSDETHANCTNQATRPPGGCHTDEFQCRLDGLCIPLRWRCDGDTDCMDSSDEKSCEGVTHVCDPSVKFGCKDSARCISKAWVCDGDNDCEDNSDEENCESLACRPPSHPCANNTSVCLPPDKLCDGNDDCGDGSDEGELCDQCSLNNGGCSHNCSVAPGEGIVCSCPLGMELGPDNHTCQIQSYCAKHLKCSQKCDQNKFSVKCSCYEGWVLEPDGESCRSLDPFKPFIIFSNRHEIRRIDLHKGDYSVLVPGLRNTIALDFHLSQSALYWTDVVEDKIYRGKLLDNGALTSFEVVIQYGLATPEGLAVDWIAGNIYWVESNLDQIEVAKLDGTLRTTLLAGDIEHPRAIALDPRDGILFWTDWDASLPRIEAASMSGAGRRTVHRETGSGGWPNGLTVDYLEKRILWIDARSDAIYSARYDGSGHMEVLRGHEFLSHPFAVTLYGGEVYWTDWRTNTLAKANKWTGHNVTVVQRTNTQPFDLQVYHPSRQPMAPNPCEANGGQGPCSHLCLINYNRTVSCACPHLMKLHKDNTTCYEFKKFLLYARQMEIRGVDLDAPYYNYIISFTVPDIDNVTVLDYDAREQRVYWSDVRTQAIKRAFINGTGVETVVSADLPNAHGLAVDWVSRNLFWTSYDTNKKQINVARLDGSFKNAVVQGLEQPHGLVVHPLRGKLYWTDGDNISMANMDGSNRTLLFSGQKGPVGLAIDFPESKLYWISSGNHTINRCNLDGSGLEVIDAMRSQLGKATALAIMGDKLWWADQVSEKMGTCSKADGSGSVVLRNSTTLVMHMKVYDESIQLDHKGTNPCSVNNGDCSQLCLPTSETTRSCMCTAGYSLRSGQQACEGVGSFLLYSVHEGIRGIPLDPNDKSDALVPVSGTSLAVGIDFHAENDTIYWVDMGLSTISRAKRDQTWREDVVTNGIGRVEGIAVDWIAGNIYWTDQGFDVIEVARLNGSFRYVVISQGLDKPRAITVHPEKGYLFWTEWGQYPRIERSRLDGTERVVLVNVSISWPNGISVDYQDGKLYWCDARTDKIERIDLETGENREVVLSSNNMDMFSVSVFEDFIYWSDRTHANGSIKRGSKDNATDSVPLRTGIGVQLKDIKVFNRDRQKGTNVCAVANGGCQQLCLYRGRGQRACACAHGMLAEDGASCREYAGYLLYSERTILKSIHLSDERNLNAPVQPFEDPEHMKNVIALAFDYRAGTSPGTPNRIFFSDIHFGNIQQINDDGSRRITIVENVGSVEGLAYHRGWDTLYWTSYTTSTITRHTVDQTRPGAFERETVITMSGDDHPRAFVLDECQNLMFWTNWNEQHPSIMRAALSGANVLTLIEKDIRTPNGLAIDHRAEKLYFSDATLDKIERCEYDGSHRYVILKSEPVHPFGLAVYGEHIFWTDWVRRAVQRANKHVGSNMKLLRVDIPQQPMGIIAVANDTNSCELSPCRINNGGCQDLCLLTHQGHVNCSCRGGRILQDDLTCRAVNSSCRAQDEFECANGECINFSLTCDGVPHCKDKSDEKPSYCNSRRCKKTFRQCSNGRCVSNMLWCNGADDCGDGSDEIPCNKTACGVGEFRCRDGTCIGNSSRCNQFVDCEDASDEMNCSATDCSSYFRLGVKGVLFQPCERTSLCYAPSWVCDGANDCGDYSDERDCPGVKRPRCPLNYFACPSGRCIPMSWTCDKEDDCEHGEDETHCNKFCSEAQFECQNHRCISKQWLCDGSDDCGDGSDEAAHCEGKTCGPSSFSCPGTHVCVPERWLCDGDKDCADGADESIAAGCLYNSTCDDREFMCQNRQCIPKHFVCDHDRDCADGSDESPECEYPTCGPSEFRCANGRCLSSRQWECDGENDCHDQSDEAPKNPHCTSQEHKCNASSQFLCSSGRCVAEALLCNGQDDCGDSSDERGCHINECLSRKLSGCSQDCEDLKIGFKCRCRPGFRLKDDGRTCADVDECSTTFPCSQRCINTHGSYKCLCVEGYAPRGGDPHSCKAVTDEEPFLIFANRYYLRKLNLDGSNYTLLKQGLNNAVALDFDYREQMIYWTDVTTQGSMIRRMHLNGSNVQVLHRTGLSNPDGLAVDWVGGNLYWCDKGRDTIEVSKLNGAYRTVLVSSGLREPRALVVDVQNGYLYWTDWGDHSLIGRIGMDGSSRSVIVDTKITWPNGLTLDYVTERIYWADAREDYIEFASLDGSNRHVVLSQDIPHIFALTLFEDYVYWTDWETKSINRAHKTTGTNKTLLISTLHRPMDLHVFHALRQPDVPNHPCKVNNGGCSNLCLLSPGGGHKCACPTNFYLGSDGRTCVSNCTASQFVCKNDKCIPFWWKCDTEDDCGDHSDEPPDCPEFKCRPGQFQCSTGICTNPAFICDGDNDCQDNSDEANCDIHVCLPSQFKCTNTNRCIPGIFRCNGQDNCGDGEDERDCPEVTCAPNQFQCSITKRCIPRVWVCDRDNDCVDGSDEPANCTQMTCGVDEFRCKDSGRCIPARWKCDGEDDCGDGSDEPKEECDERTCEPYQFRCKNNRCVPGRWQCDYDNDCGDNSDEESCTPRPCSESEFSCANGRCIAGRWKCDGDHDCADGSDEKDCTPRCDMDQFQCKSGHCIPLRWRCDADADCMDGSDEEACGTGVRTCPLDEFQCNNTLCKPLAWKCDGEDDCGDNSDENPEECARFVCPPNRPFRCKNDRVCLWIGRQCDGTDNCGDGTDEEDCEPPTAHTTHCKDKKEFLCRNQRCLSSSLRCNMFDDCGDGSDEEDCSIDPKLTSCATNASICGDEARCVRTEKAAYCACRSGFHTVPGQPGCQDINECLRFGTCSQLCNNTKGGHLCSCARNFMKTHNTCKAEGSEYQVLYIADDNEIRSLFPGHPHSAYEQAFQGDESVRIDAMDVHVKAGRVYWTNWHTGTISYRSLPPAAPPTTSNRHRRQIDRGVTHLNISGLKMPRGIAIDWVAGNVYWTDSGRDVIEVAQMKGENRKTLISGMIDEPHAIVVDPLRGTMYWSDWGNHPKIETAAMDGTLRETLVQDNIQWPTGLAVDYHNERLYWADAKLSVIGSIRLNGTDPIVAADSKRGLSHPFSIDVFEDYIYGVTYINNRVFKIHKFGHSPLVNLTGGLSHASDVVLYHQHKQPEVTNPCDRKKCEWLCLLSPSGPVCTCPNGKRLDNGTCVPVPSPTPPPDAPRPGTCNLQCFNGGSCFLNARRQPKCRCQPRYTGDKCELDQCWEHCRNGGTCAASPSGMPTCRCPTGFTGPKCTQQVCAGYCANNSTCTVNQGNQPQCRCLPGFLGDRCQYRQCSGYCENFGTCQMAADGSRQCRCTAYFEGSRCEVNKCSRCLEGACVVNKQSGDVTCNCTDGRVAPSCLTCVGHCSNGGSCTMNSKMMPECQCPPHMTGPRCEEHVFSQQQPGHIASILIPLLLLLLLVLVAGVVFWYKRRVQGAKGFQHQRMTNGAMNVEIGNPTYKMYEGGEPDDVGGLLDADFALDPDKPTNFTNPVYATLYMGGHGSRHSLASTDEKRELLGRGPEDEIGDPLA
# T4 sequence (P08254 100-272, stated change not applied): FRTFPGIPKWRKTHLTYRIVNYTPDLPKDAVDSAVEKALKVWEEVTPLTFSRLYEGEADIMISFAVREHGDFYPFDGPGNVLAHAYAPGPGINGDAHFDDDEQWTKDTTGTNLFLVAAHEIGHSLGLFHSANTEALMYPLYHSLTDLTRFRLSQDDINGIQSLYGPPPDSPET
Binder,"half-life of loss from the medium of HTB94 chondrosarcoma cells (1 nM, 0-24 h, anti-FLAG immunoblot and densitometry) [1] [h]","half-life of uptake from the medium of LRP1 wild-type PEA10 cells (1 nM, 0-8 h); remained at the same level in the medium of LRP1-null PEA13 cells [1] [h]",Ki [2] [nM],Ki [3] [nM],Ki [4] [nM],Ki [5] [nM],Ki [6] [nM],Ki [7] [nM],Ki [8] [nM]
"wild-type TIMP-3 (tissue inhibitor of metalloproteinases-3), C-terminally FLAG-tagged (natural protein, UniProt P35625 24-211, looked up, TIMP-3, secreted into the conditioned medium; source: for the screen also transiently transfected, conditioned medium dialyzed against TBS; not shown: FLAG, C-terminal, kept) CTCSPSHPQDAFCNSDIVIRAKVVGKKLVKEGPFGTLVYTIKQMKMYRGFTKMPHVQYIHTEASESLCGLKLEVNKYQYLLTGRVYDGKMYTGLCNFVERWDQLTLSQRKGLNYRYHLGCNCKIKSCYYLPCFVTSKNECLWTDMLSNFGYPGYQSKHYACIRQKGGYCSWYRGWAPPDKSIINATDP",3.6,1.9,3.54,1.27,0.19,1.2,0.6,1.2,–
"TIMP-3 K42A/K110A, C-terminally FLAG-tagged (natural protein, UniProt P35625 24-211, looked up, TIMP-3, secreted into the conditioned medium; The discussion once calls this mutant K45A/K110A; source: for the screen also transiently transfected, conditioned medium dialyzed against TBS; not shown: FLAG, C-terminal, kept) CTCSPSHPQDAFCNSDIVIRAKVVGKKLVKEGPFGTLVYTIAQMKMYRGFTKMPHVQYIHTEASESLCGLKLEVNKYQYLLTGRVYDGKMYTGLCNFVERWDQLTLSQRAGLNYRYHLGCNCKIKSCYYLPCFVTSKNECLWTDMLSNFGYPGYQSKHYACIRQKGGYCSWYRGWAPPDKSIINATDP",–,–,2.34,1.12,0.24,1.4,0.6,0.6,1.2
